# Where two headings read alike, the source gives them in different places.
# B1: ADC-L1-14-P1-3 (antibody, human IgG1, kappa, V domains shown)
# VH: EVQLVQSGAEVKKPGASVKVSCKASGYTFTRNFMHWVRQAPGQGLEWMGWIYPGDGETEYAQKFQGRVTITADTSTSTAYMELSSLRSEDTAVYYCARGVYGGFAGGYFDFWGQGTLVTVSS
# VL: DIQMTQSPSSLSASVGDRVTITCKASQNIYKNLAWYQQKPGKAPKLLIYDANTLQTGVPSRFSGSGSGSDFTLTISSLQPEDFATYFCQQYYSGWAFGQGTKVEIKR
# modifications: drug-linker L1-14-P1 on cysteine thiols after TCEP reduction; positions not given; DAR 8.5 for the whole conjugate
# notes: Antibody-drug conjugate
# B2: ADC-L1-19-P1-3 (antibody, human IgG1, kappa, V domains shown)
# VH: B1 VH
# VL: B1 VL
# modifications: drug-linker L1-19-P1 on cysteine thiols after TCEP reduction; positions not given; DAR 7.2 for the whole conjugate
# notes: Antibody-drug conjugate
# B3: CDH6-Ab (antibody, human IgG1, kappa, V domains shown)
# VH: B1 VH
# VL: B1 VL
# notes: also called anti-human CDH6 monoclonal antibody CDH6-Ab
# B4: ADC-DS: comparator CDH6 antibody-drug conjugate of Table 9, DAR 7.5 (conjugate, chains of the INN, looked up)
# VH: B1 VH
# VL: DIQMTQSPSSLSASVGDRVTITCKASQNIYKNLAWYQQKPGKAPKLLIYDANTLQTGVPSRFSGSGSGSDFTLTISSLQPEDFATYFCQQYYSGWAFGQGTKVEIK
# modifications: deruxtecan payload, DAR 7.5
# B5: ADC-L1-19-3 (antibody, human IgG1, kappa, V domains shown)
# VH: B1 VH
# VL: B1 VL
# modifications: drug-linker L1-19 on cysteine thiols after TCEP reduction; positions not given; DAR 7.1 for the whole conjugate
# notes: Antibody-drug conjugate
# B6: ADC-L1-19-6 (antibody, human IgG1, kappa, V domains shown)
# VH: EVQLVQSGAEVKKPGASVKVSCKASGYTFTDYYMAWVRQAPGQGLEWMGYIFPNSGGTDYSQKFKGRVTLTVDKSTSTVYMELSSLRSEDTAVYYCARELGADYGDYYAMDHWGQGTTVTVSS
# VL: DIQMTQSPSSLSASVGDRVTITCRASENIDSYLAWYQQKPGKSPKLLVYSATLLADGVPSRFSGSGSGTDYTLTISSLQPEDFATYYCQHYYRTPPTFGQGTKLEIKR
# modifications: drug-linker L1-19 on cysteine thiols after TCEP reduction; positions not given; DAR 7.4 for the whole conjugate
# notes: Antibody-drug conjugate
# B7: ADC-L1-19-P1-6 (antibody, human IgG1, kappa, V domains shown)
# VH: B6 VH
# VL: B6 VL
# modifications: drug-linker L1-19-P1 on cysteine thiols after TCEP reduction; positions not given; DAR 8.0 for the whole conjugate
# notes: Antibody-drug conjugate
# B8: CDH6-Ab-3 (antibody, human IgG1, kappa, V domains shown)
# VH: B6 VH
# VL: B6 VL
# notes: also called humanized anti-human CDH6 antibody CDH6-Ab-3
# B9: ADC-L1-19-5 (antibody, human IgG1, kappa, V domains shown)
# VH: EVQLVQSGAEVKKPGASVKVSCKASGYTFTDNYINWVRQAPGQRLEWMGWIYPGTGNSYYNEKFKGRVTITVDTSASTAYMELSSLRSEDTAVYLCASSYGDSFDYWGQGTTVTVSS
# VL: DIVMTQSPDSLAVSLGERATINCRASQDIRNYLNWYQQKPGQTPKLLISYTSRLHSGVPDRFSGSGSGTDFTLTISSLQAEDVAVYYCQQYSQLPWTFGGGTKVEIKR
# modifications: drug-linker L1-19 on cysteine thiols after TCEP reduction; positions not given; DAR 6.8 for the whole conjugate
# notes: Antibody-drug conjugate
# B10: CDH6-Ab-2 (antibody, human IgG1, kappa, V domains shown)
# VH: B9 VH
# VL: B9 VL
# notes: also called humanized anti-human CDH6 antibody CDH6-Ab-2
# How the values were obtained:
# [1] = target: human ROR1 on stably transfected cell strain MCF7-hROR1 clone 2G2 (human) (UniProt Q01973); assay: flow cytometry (FACS) on MCF7-hROR1 clone 2G2 cells, identification of the stably transfected clone
# SKBR3 tumor cell = assay: Binding of anti-HER2 ADC and antibody with SKBR3 tumor cell by FACS; parameters: species or system human
# Description: (§1) SKBR3 cells (from ATCC) were collected, counted, and plated in a 96-well plate (Corning, 3795) at 2×10^5 cells/well. The serially diluted sample to be detected was added and incubated at 4° C. for 1 h. After the mixture was washed twice with ice PBS, Alexa Fluor-647 goat anti-human Fc secondary antibody (JacksonImmuno, 109-605-098) was added, and the mixture was incubated at 4° C. for 1 h. After the mixture was washed twice with ice PBS, the cells were resuspended, and the mean fluorescence intensity (MFI) was analyzed using a flow cytometer (BD FACSCanto™ II). Data were analyzed by four-parameter curve fitting using Graphpad Prism software to give EC50 values.
# CDH6 on OVCAR3 cells = target: T1, CDH6 on OVCAR3 cells (human, UniProt P55285 54-790); assay: flow cytometry (FACS) on OVCAR3 cells, Alexa Fluor 647 anti-human Fc secondary antibody, MFI, four-parameter fit
# T1 construct: whole, on cells; also called CDH6 positive cells OVCAR3; CDH6 high-expression cell strain
# T1 sequence (looked up): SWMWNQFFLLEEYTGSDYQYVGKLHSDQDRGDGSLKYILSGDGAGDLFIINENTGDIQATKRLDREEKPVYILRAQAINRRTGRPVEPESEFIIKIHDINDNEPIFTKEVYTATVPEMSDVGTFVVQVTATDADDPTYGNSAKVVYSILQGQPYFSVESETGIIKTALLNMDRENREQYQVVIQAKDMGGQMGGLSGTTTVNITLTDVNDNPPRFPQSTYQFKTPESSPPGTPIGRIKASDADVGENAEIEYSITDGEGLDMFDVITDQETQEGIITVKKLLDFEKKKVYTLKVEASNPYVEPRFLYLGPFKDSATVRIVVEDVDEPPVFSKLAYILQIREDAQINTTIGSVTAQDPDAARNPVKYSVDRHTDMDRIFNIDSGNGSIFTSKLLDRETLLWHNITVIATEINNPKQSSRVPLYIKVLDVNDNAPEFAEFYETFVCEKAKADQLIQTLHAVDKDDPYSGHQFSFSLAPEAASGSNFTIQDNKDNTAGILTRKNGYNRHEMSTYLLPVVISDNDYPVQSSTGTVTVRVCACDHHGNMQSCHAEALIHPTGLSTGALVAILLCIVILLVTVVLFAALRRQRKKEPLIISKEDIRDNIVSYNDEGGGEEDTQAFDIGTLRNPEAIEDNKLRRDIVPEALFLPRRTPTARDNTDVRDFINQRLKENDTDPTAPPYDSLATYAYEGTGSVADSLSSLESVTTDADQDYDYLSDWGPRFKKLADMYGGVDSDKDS
# Description: as §1, with “OVCAR3” for “SKBR3”, “cells” for “cells (from ATCC)”, “2×10⁵” for “2×10^5”, “Goat” for “goat”, “EC₅₀” for “EC50”
# [2] = test system: OVCAR3 subcutaneous tumor model; assay: Efficacy in OVCAR3 subcutaneous tumor model-1; type: in vivo, Balb/c nude mice; conditions: 3 mg/kg, single intravenous injection
# Description: Experimental reagent: Human ovarian cancer OVCAR3 cells were purchased from ATCC, RPMI-1640 medium was purchased from Gibco (Cat. No. A104910), fetal bovine serum was purchased from Excell (Cat. No. FND500), penicillin-streptomycin was purchased from Gibco (Cat. No. 15140122), bovine insulin was purchased from Yeasen (Cat. No. 40107ES60), 0.25% trypsin-EDTA was purchased from Gibco (Cat. No. 25200-072), D-PBS (phosphate-buffered saline without calcium and magnesium ions) was purchased from Hyclone (Cat. No. SH30256.01), and Matrigel was purchased from Corning (Cat. No. 356237).
# Animal information: Balb/c nude mice, female, 5-6 weeks, weight about 14-20 g, purchased from Beijing Vital River Biotechnology Co., Ltd. The mice were bred in SPF-rated environment with air exhaust for each cage individually. All animals had free access to standard certified commercial laboratory diets and water.
# Cell culture: The human ovarian cancer OVCAR3 cell strain was cultured in vitro under the conditions of RPMI-1640 added with 20% fetal bovine serum, 1% penicillin-streptomycin, and […] bovine insulin, and an incubator at 37° C. with 5% CO2. The cells were digested with a 0.25% trypsin-EDTA digestive solution once a week for passaging as per conventional practice. When the cell saturation was 80%-90% and a required amount was achieved, the cells were collected and counted.
# Cell inoculation: 0.1 mL of OVCAR3 cell suspension (containing 1×10^7 cells, RPMI-1640: Matrigel, volume ratio 1:1) was inoculated subcutaneously into the axilla of each mouse. On day 26 after inoculation of the cells, the mice were randomly grouped and administrated based on tumor volume.
# The day when random grouping was performed was day 0.
# Tumor diameters were measured twice weekly using a vernier caliper. The tumor volume was calculated using the following formula: V=0.5a×b^2, where a and b represent the long diameter and short diameter of the tumor, respectively. Mouse body weight was measured twice weekly.
# [3] = 37° C., 100 μg/mL
# Description: ADC molecules (final concentration: 100 μg/mL) were separately incubated with human plasma (Oribiotech, PB021-C) and monkey plasma (Shinuoda Bio, SND-X0107) in an incubator at 37° C. The day of incubation was defined as day 0. Samples were taken on days 7, 14 and 28 and tested for the free small molecule.
# 300 μL of an internal standard working solution (acetonitrile preparation) was added to 20 μL of the sample, and the mixture was vortexed for mixing for 5 min and centrifuged for 5 min (14000 rpm). 4 μL of the supernatant was analyzed by LC-MS/MS (API 6500+).
molecule,measurement,setting,value
IgG subtype control (antibody),Mean fluorescence intensity of cells,[1],54.7
"Pertuzumab: anti-human HER2 monoclonal antibody; VH SEQ ID NO: 3, VL SEQ ID NO: 4 [reference compound]",EC50,SKBR3 tumor cell,3.73 nM
B1,EC50,CDH6 on OVCAR3 cells,0.49 nM
B2,EC50,CDH6 on OVCAR3 cells,0.36 nM
B3,EC50,CDH6 on OVCAR3 cells,0.71 nM
B4,Mean tumor volume (mm^3) Day 0,[2]; Table 23,154.4 mm^3
same,Mean tumor volume (mm^3) Day 4,"[2]; Table 23, Day 4",211.3 mm^3
same,Mean tumor volume (mm^3) Day 7,"[2]; Table 23, Day 7",194.1 mm^3
same,Mean tumor volume (mm^3) Day 11,"[2]; Table 23, Day 11",159.5 mm^3
same,Mean tumor volume (mm^3) Day 14,"[2]; Table 23, Day 14",131.5 mm^3
same,Mean tumor volume (mm^3) Day 18,"[2]; Table 23, Day 18",95.5 mm^3
same,Mean tumor volume (mm^3) Day 22,[2]; Table 23,73.6 mm^3
same,Mean tumor volume (mm^3) Day 25,"[2]; Table 23, Day 25",66.0 mm^3
same,Mean tumor volume (mm^3) Day 28,"[2]; Table 23, Day 28",77.8 mm^3
same,TGI (%) Day 28,"[2]; Table 23, Day 28",110.6%
same,Mean tumor volume (mm^3) Day 0,[2]; Table 24,145.0 mm^3
same,Mean tumor volume (mm^3) Day 5,"[2]; Table 24, Day 5",165.9 mm^3
same,Mean tumor volume (mm^3) Day 8,"[2]; Table 24, Day 8",153.4 mm^3
same,Mean tumor volume (mm^3) Day 12,"[2]; Table 24, Day 12",91.4 mm^3
same,Mean tumor volume (mm^3) Day 16,"[2]; Table 24, Day 16",56.2 mm^3
same,Mean tumor volume (mm^3) Day 19,"[2]; Table 24, Day 19",41.2 mm^3
same,Mean tumor volume (mm^3) Day 22,[2]; Table 24,28.9 mm^3
same,Mean tumor volume (mm^3) Day 27,"[2]; Table 24, Day 27",23.4 mm^3
same,TG (%) Day 27,"[2]; Table 24, Day 27",134.2%
same,Free small molecule %,"[3]; Human plasma, incubation 0 day",0.59%
same,Free small molecule %,"[3]; Human plasma, incubation 7 days",0.72%
same,Free small molecule %,"[3]; Human plasma, incubation 14 days",1.21%
same,Free small molecule %,"[3]; Human plasma, incubation 28 days",1.90%
same,Free small molecule %,"[3]; Monkey plasma, incubation 0 day",0.64%
same,Free small molecule %,"[3]; Monkey plasma, incubation 7 days",2.28%
same,Free small molecule %,"[3]; Monkey plasma, incubation 14 days",4.03%
same,Free small molecule %,"[3]; Monkey plasma, incubation 28 days",9.66%
B5,EC50,CDH6 on OVCAR3 cells,0.34 nM
B6,EC50,CDH6 on OVCAR3 cells,0.85 nM
B7,EC50,CDH6 on OVCAR3 cells,0.8 nM
B8,EC50,CDH6 on OVCAR3 cells,0.78 nM
B9,EC50,CDH6 on OVCAR3 cells,0.51 nM
B10,EC50,CDH6 on OVCAR3 cells,0.63 nM

# Source: patent US20250304717A1, “CAMPTOTHECIN DERIVATIVE AND LIGAND-DRUG CONJUGATE” (HAINAN SIMCERE ZAIMING PHARMACEUTICAL CO., LTD., priority 2022, published 2025)
